Drawing on article PMC9746958, this text covers fold increase in BRET signal upon leptin stimulation for one substance.

The target of the assay is leptin receptor (OBR-2K), fused to luciferase (OBR-2K Rluc) or to YFP (OBR-2K YFP) (UniProt P48357). Briefly: FRET or BRET; HEK293T cells co-transfected with OBR-2K Rluc (donor) and OBR-2K YFP (acceptor); pre-treated with homocysteine (1-10 mM) for 4 h, then leptin (10 nM) for 30 min; coelenterazine h 20 uM; result in mBRET units.

As for “leptin receptor (OBR-2K), fused to luciferase (OBR-2K Rluc) or to YFP (OBR-2K YFP) (from UniProt P48357 22-1165)”, the fold increase in BRET signal upon leptin stimulation stood at 3 fold.
